Data: the supplement of paper PMC10567573

B1: LOXL2 (parent)
chain: RLLRFSSQIHNNGQSDFRPKNGRH

Variants of: B1
Experiment: protein stability index of a GFP-peptide fusion (GPS, HEK-293T) (PSI 1-6); higher = more stable
Conditions: c terminus: a fixed tail appended
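Also: lentivirally expressed fusions sorted by FACS into six bins by GFP to DsRed ratio, PSI derived from sequencing read proportions per bin multiplied by bin number.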

In order of falling protein stability index:
1. RLLRFSSQIHNNGQSDDRPKNGRH [F17D]  3.75
2. RLLRFSSQIHNNGQSDERPKNGRH [F17E]  3.67
3. RLLRFSSQIHNNGQSDHRPKNGRH [F17H]  3.52
4. RLLRFSSQIHNNGQSDPRPKNGRH [F17P]  3.45
5. RLLRFSSQIHNNGQSDNRPKNGRH [F17N]  3.42
6. RLLRFSSQIHNNGQSDQRPKNGRH [F17Q]  3.42
7. RLLRFSSQIHNNGQSDIRPKNGRH [F17I]  3.38
8. RLLRFSSQIHNNGTSDFRPKNGRH [Q14T]  3.35
9. RLLRFSSQIHNNGQSDKRPKNGRH [F17K]  3.34
10. RLLRFSSQIHNNGQSDTRPKNGRH [F17T]  3.31
11. RLLRFSSQIHNNEQSDFRPKNGRH [G13E]  3.31
12. RLLRFSSQIHNNGESDFRPKNGRH [Q14E]  3.26
13. RLLRFSSQIHNSGQSDFRPKNGRH [N12S]  3.25
14. RLLRFSSQIHNNQQSDFRPKNGRH [G13Q]  3.2
15. RLLRFSSQIHNNDQSDFRPKNGRH [G13D]  3.19
16. RLLRFSSQIHNNRQSDFRPKNGRH [G13R]  3.19
17. RLLRFSSQIHNGGQSDFRPKNGRH [N12G]  3.16
18. RLLRFSSQIHNPGQSDFRPKNGRH [N12P]  3.15
19. RLLRFSSQIHNNGSSDFRPKNGRH [Q14S]  3.15
20. RLLRFSSQIHNNGQSDSRPKNGRH [F17S]  3.15
21. RLLRFSSQIHNNGQSDMRPKNGRH [F17M]  3.06
22. RLLRFSSQIHNNGQSDRRPKNGRH [F17R]  3.06
23. RLLRFSSQIHNNHQSDFRPKNGRH [G13H]  3.06
24. RLLRFSSQIHNNGQSDGRPKNGRH [F17G]  3.04
25. RLLRFSSQIHNNGQSDFRPKEGRH [N21E]  2.97
26. RLLRFSSQIHNNGQSDVRPKNGRH [F17V]  2.95
27. RLLRFSSQIHNNGQSDARPKNGRH [F17A]  2.95
28. RLLRFSSQIHNNNQSDFRPKNGRH [G13N]  2.94
29. RLLRFSSQIHNVGQSDFRPKNGRH [N12V]  2.87
30. RLLRFSSQIHNNGDSDFRPKNGRH [Q14D]  2.84
31. RLLRFSSQIHNNGPSDFRPKNGRH [Q14P]  2.81
32. RLLRFSSQIHNNMQSDFRPKNGRH [G13M]  2.81
33. RLLRFSSQIHNNGQSDCRPKNGRH [F17C]  2.8
34. RLLRFSSQIHNNGNSDFRPKNGRH [Q14N]  2.79
35. RLLRFSSQIHNNGQSDLRPKNGRH [F17L]  2.75
36. RLLRFSSQIHNNTQSDFRPKNGRH [G13T]  2.74
37. RLLRFSSQIHNNGQSSFRPKNGRH [D16S]  2.73
38. RLLRFSSQIHNTGQSDFRPKNGRH [N12T]  2.72
39. RLLRFSSQIHNNGQSEFRPKNGRH [D16E]  2.72
40. RLLRFSSQIHNNGQSLFRPKNGRH [D16L]  2.7
41. RLLRFSSQIHNNGQSDYRPKNGRH [F17Y]  2.69
42. RLLRFSSQIHNKGQSDFRPKNGRH [N12K]  2.65
43. RLLRFSSQIHNNPQSDFRPKNGRH [G13P]  2.62
44. RLLRFSSQIHNHGQSDFRPKNGRH [N12H]  2.59
45. RLLRFSSQIHNNGHSDFRPKNGRH [Q14H]  2.59
46. RLLRFSSQIHNQGQSDFRPKNGRH [N12Q]  2.57
47. RLLRFSSQIHNEGQSDFRPKNGRH [N12E]  2.57
48. RLLRFSSQIHNNWQSDFRPKNGRH [G13W]  2.56
49. RLLRFSSQIHNWGQSDFRPKNGRH [N12W]  2.55
50. RLLRFSSQIHNNGASDFRPKNGRH [Q14A]  2.55
51. RLLRFSSQIHNRGQSDFRPKNGRH [N12R]  2.52
52. RLLRFSSQIHNNGGSDFRPKNGRH [Q14G]  2.52
53. RLLRFSSQIHNNGQSQFRPKNGRH [D16Q]  2.51
54. RLLRFSSQIHNNGRSDFRPKNGRH [Q14R]  2.5
55. RLLRFSSQIHNNGMSDFRPKNGRH [Q14M]  2.5
56. RLLRFSSQIHNNAQSDFRPKNGRH [G13A]  2.48
57. RLLRFSSQIHNNSQSDFRPKNGRH [G13S]  2.46
58. RLLRFSSQIHNYGQSDFRPKNGRH [N12Y]  2.39
59. RLLRFSSQIHNNGKSDFRPKNGRH [Q14K]  2.39
60. RLLRFSSQIHNNLQSDFRPKNGRH [G13L]  2.39
61. RLLRFSSQIHNNGQSWFRPKNGRH [D16W]  2.37
62. RLLRFSSQIHNMGQSDFRPKNGRH [N12M]  2.36
63. RLLRFSSQIHNNGQSAFRPKNGRH [D16A]  2.36
64. RLLRFSSQIHNNGQSHFRPKNGRH [D16H]  2.35
65. RLLRFSSQIHNNGQSDWRPKNGRH [F17W]  2.32
66. RLLRFSSQIHNNIQSDFRPKNGRH [G13I]  2.31
67. RLLRFSSQIHNNGCSDFRPKNGRH [Q14C]  2.3
68. RLLRFSSQIHNNGQSTFRPKNGRH [D16T]  2.29
69. RLLRFSSQIHNIGQSDFRPKNGRH [N12I]  2.27
70. RLLRFSSQIHNNGQSNFRPKNGRH [D16N]  2.27
71. RLLRFSSQIHNNFQSDFRPKNGRH [G13F]  2.25
72. RLLRFSSQIHNNVQSDFRPKNGRH [G13V]  2.24
73. RLLRFSSQIHNNGQSRFRPKNGRH [D16R]  2.23
74. RLLRFSSQIHNNGLSDFRPKNGRH [Q14L]  2.19
75. RLLRFSSQIHNNGQSIFRPKNGRH [D16I]  2.17
76. RLLRFSSQIHNNGQSDFRPKLGRH [N21L]  2.17
77. RLLRFSSQIHNLGQSDFRPKNGRH [N12L]  2.15
78. RLLRFSSQIHNNGQSVFRPKNGRH [D16V]  2.15
79. RLLRFSSQIHNNGVSDFRPKNGRH [Q14V]  2.15
80. RLLRFSSQIHNNKQSDFRPKNGRH [G13K]  2.15
81. RLLRFSSQIHNNGQSGFRPKNGRH [D16G]  2.12
82. RLLRFSSQIHNNGQSPFRPKNGRH [D16P]  2.11
83. RLLRFSSQIHNNGISDFRPKNGRH [Q14I]  2.11
84. RLLRFSSQIHNNYQSDFRPKNGRH [G13Y]  2.09
85. RLLRFSSQIHNNGQSYFRPKNGRH [D16Y]  2.06
86. RLLRFSSQIHNNGWSDFRPKNGRH [Q14W]  2.06
87. RLLRFSSQIHNNGQSFFRPKNGRH [D16F]  1.97
88. RLLRFSSQIHNNCQSDFRPKNGRH [G13C]  1.97
89. RLLRFSSQIHNNGQSKFRPKNGRH [D16K]  1.94
90. RLLRFSSQIHNNGYSDFRPKNGRH [Q14Y]  1.91
91. RLLRFSSQIHNNGFSDFRPKNGRH [Q14F]  1.8
92. RLLRFSSQIHNNGQSMFRPKNGRH [D16M]  1.77
93. RLLRFSSQIHNFGQSDFRPKNGRH [N12F]  1.74
94. RLLRFSSQIHNNGQSCFRPKNGRH [D16C]  1.73
